± gives the uncertainty stated by the source.
Assay: self-splicing fitness, log relative to wild type (ln ratio); higher = more splicing; Tetrahymena group I intron in knt gene, E. coli kanamycin selection, DiMSum; sequences stand for … in CUCUCU…GGAGGGAAAAGUUAUCAGGCAUGCACCUGGUAGCUAGUCUUUAAACCAAUAGAUUGCAUCGGUUUAAAAGGCAAGACCGUCAAAUUGCGGGAAAGGGGUCAACAGCCGUUCAGUACCAAGUCUCAGGGGAAACUUUGAGAUGGCCUUGCAAAGGGUAUGGUAAUAAGCUGACGGACAUGGUCCUAACCACGCAGCCAAGUCCUAAGUCAACAGAUCUUCUGUUGAUAUGGAUGCAGUUCACAGACUAAAUGUCGGUCGGGGAAGAUGUAUUCUUCUCAUAAGAUAUAGUCGGACCUCUCCUUAAUGGGAGCUAGCGGAUGAAGUGAUGCAACACUGGAGCCGCUGGGAACUAAUUUGUAUGCGAAAGUAUAUUGAUUAGUUUUGGAGUACUCGUGGUCG
In short: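 Pooled colonies went to amplicon sequencing on an Illumina HiSeq 2500 after six replicate transformations. The plates were LB agar with 100 μg/mL carbenicillin, 50 μM IPTG and 0.2% rhamnose, with or without 25 μg/mL kanamycin, incubated overnight at 37°C or 30°C. The E. coli BL21(DE3) library had all eight P1ex-region intron nucleotides randomised, the intron placed in the knt kanamycin-resistance gene on pET-22b(+). DiMSum fitness is the error-weighted combination of replicate fold changes, kanamycin against none, normalised to wild type.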

| Sequence | self-splicing fitness (ln) (37 °C) | self-splicing fitness (ln) (30 °C) |
| --- | --- | --- |
| CGAAAGCAAUAUUACGAGGU | -1.64 ± 0.3 |  |
| CGAAAGCAAUAUUACGAGUU | -2.21 ± 0.23 | -3.72 ± 0.44 |
| CGAAAGCAAUAUUACGCAUC | -2.75 ± 0.36 |  |
| CGAAAGCAAUAUUACGCAUU | -2.94 ± 0.37 | -4.46 ± 0.42 |
| CGAAAGCAAUAUUACGCCGU | -0.862 ± 0.12 | -2.98 ± 0.16 |
| CGAAAGCAAUAUUACGCGAA | -2.02 ± 0.3 | -1.82 ± 0.24 |
| CGAAAGCAAUAUUACGCUAA | -1.53 ± 0.21 | -3.88 ± 0.4 |
| CGAAAGCAAUAUUACGCUAC |  | -2.53 ± 0.3 |
| CGAAAGCAAUAUUACGGAGC | -2.22 ± 0.16 | -4.16 ± 0.25 |
| CGAAAGCAAUAUUACGGCUG | 0.181 ± 0.13 | 0.127 ± 0.11 |
| CGAAAGCAAUAUUACGGUAU | -1.2 ± 0.19 | -3.81 ± 0.29 |
| CGAAAGCAAUAUUACGGUUA | -2.11 ± 0.1 | -1.85 ± 0.12 |
| CGAAAGCAAUAUUACGUCCC | -0.0504 ± 0.23 | -0.693 ± 0.14 |
| CGAAAGCAAUAUUACGUGGU | -2.11 ± 0.13 | -3.92 ± 0.14 |
| CGAAAGCAAUAUUACGUUUC | -2.15 ± 0.16 | -3.81 ± 0.2 |
| CGACAGCAAUAUUACGAAAC | -2.39 ± 0.25 | -3.49 ± 0.27 |
| CGACAGCAAUAUUACGACCA | -0.397 ± 0.12 | -0.898 ± 0.1 |
| CGACAGCAAUAUUACGACUG | -0.0407 ± 0.14 | -1.32 ± 0.089 |
| CGACAGCAAUAUUACGAGCC | -1.68 ± 0.26 | -3.59 ± 0.22 |
| CGACAGCAAUAUUACGAGGC | -2.49 ± 0.31 | -1.34 ± 0.13 |
| CGACAGCAAUAUUACGAUUA | -0.873 ± 0.1 | -1.99 ± 0.12 |

| Sequence | self-splicing fitness (ln) (37 °C) | self-splicing fitness (ln) (30 °C) |
| --- | --- | --- |
| CGACAGCAAUAUUACGCAUC | -2.75 ± 0.25 | -3.1 ± 0.14 |
| CGACAGCAAUAUUACGCCAU | -1.51 ± 0.32 | -3.77 ± 0.3 |
| CGACAGCAAUAUUACGCGUA | -1.58 ± 0.15 | -1.75 ± 0.28 |
| CGACAGCAAUAUUACGGCUU | -1.6 ± 0.14 | -3.12 ± 0.16 |
| CGACAGCAAUAUUACGGGUU | -2.01 ± 0.12 | -3.47 ± 0.12 |
| CGACAGCAAUAUUACGGUCC | -0.69 ± 0.14 | -1.13 ± 0.11 |
| CGACAGCAAUAUUACGGUUA | 0.0311 ± 0.067 | -0.601 ± 0.062 |
| CGACAGCAAUAUUACGUAAA | -2.28 ± 0.21 | -3.02 ± 0.15 |
| CGACAGCAAUAUUACGUACA | -0.392 ± 0.099 | -0.66 ± 0.078 |
| CGACAGCAAUAUUACGUAGA | -2.12 ± 0.15 | -3.57 ± 0.13 |
| CGACAGCAAUAUUACGUAGC | -2.21 ± 0.16 | -3.61 ± 0.18 |
| CGACAGCAAUAUUACGUAUU | -2.53 ± 0.16 | -3.09 ± 0.14 |
| CGACAGCAAUAUUACGUCAA | -1.21 ± 0.12 | -1.99 ± 0.14 |
| CGACAGCAAUAUUACGUCCC |  | -0.895 ± 0.47 |
| CGACAGCAAUAUUACGUCUC | -2.13 ± 0.2 | -1.98 ± 0.13 |
| CGACAGCAAUAUUACGUGAC | -2.61 ± 0.31 | -3.67 ± 0.24 |
| CGACAGCAAUAUUACGUGGG | -1.54 ± 0.1 | -3.19 ± 0.14 |
| CGACAGCAAUAUUACGUUCC | -0.935 ± 0.14 | -1.82 ± 0.11 |
| CGACAGCAAUAUUACGUUCG | -2.18 ± 0.22 | -2.52 ± 0.15 |
| CGACAGCAAUAUUACGUUUA | -0.394 ± 0.087 | -1.81 ± 0.11 |
| CGAGAGCAAUAUUACGAACA | -2.84 ± 0.41 | -2.54 ± 0.3 |

| Sequence | self-splicing fitness (ln) (37 °C) | self-splicing fitness (ln) (30 °C) |
| --- | --- | --- |
| CGAGAGCAAUAUUACGAAGC | -2.02 ± 0.27 | -3.7 ± 0.28 |
| CGAGAGCAAUAUUACGACCG | -1.84 ± 0.33 | -3.71 ± 0.43 |
| CGAGAGCAAUAUUACGAGCU | -3.02 ± 0.47 | -4.6 ± 0.42 |
| CGAGAGCAAUAUUACGAGUG | -0.803 ± 0.14 | -3.53 ± 0.26 |
| CGAGAGCAAUAUUACGAUAG | -2.11 ± 0.18 | -2.68 ± 0.18 |
| CGAGAGCAAUAUUACGCCGU |  | -2.28 ± 0.49 |
| CGAGAGCAAUAUUACGCCUG | -1.73 ± 0.28 | -3.12 ± 0.25 |
| CGAGAGCAAUAUUACGCGUC | -2.64 ± 0.42 | -3.01 ± 0.36 |
| CGAGAGCAAUAUUACGCGUU | -2.46 ± 0.49 | -2.8 ± 0.36 |
| CGAGAGCAAUAUUACGCUUC | -1.61 ± 0.31 | -2.04 ± 0.37 |
| CGAGAGCAAUAUUACGGAAA |  | -1.65 ± 0.33 |
| CGAGAGCAAUAUUACGGCGA | -1.28 ± 0.31 | -2.72 ± 0.3 |
| CGAGAGCAAUAUUACGGGAU | -2.53 ± 0.23 | -2.56 ± 0.13 |
| CGAGAGCAAUAUUACGGGGC | -2.61 ± 0.39 | -2.35 ± 0.31 |
| CGAGAGCAAUAUUACGGUGU | -2.73 ± 0.24 | -3.56 ± 0.21 |
| CGAGAGCAAUAUUACGUAGC | -2.52 ± 0.27 | -4.39 ± 0.42 |
| CGAGAGCAAUAUUACGUCAU | -1.78 ± 0.33 | -3.96 ± 0.4 |
| CGAGAGCAAUAUUACGUUAA |  | -2.26 ± 0.22 |
| CGAGAGCAAUAUUACGUUCA | -2.69 ± 0.31 | -2.34 ± 0.21 |
| CGAGAGCAAUAUUACGUUCG | -1.73 ± 0.23 | -3.2 ± 0.2 |

Source: the supplement of paper PMC7877785
